In article PMC9418327, “Specificity of the Hox member Deformed is determined by transcription factor levels and binding site affinities”:
Substitutions are numbered along the chain they refer to.

B1: oligo-D-1-mt (D-9mut-10wt) (dsDNA)
DNA 1: TATAAAAGGCGGCAAATACTAATCTATTCTCGAT
DNA 2: ATCGAGAATAGATTAGTATTTGCCGCCTTTTATA
B2: oligo-D-1-mt-2-H (D-9mut-10H) (dsDNA)
DNA 1: TATAAAAGGCGGCATTGATTAATTAATTCTCGAT
DNA 2: ATCGAGAATTAATTAATCAATGCCGCCTTTTATA
B3: oligo-B-12-mt (dsDNA)
DNA 1: GACCGCAGAACCAAGCCGCCTATTGCCAGTGAAT
DNA 2: ATTCACTGGCAATAGGCGGCTTGGTTCTGCGGTC
B4: oligo-D-wt (sites 9, 10) (dsDNA)
DNA 1: B1 DNA 1 with G9C, G11A, G12T, C13T
DNA 2: B1 DNA 2 with G22A, C23A, C24T, C26G
B5: oligo-E-wt (site 11) (dsDNA)
DNA 1: CTTCTTCGGGCACCTAATGACGCGCGTTCAACAT
DNA 2: ATGTTGAACGCGCGTCATTAGGTGCCCGAAGAAG
B6: oligo-E-11-H (dsDNA)
DNA 1: CTTCTTCGGATGATTAATGACGCGCGTTCAACAT
DNA 2: ATGTTGAACGCGCGTCATTAATCATCCGAAGAAG
B7: oligo-class-2-site (dsDNA)
DNA 1: TTCAGAGCGAATGATTAATGATCGGTCAAG
DNA 2: CTTGACCGATCATTAATCATTCGCTCTGAA
B8: oligo-A-wt (site 1) (dsDNA)
DNA 1: TCTCAGCCTCGATAATTAACACACAAGCGCGGGG
DNA 2: CCCCGCGCTTGTGTGTTAATTATCGAGGCTGAGA

What was measured:
[1] = biological target: T1, Dfd (Deformed);Exd (Extradenticle) (Drosophila melanogaster?;Drosophila …, UniProt P07548;P40427 1-586;1-376, |); assay: EMSA; Hth presence not given; 20 mM HEPES pH 7.9, 1.4 mM MgCl2, 1 mM ZnSO4, 40 mM KCl, 0.1 mM EGTA, 5% glycerol, 10 mM DTT, 0.1% NP40, 200 ng poly(dI-dC), 3 ug BSA, 2 pmol Cy5 dsDNA in 30 ul, on ice 20 min; 1% agarose-TBE gel at 4 C; settings: protein: recombinant;recombinant; tags: GST (pGEX-6P);His-myc; copies: 1;1; label: 5'-Cy5; blunt
[2] = biological target: T2, Dfd (Deformed);Exd (Extradenticle);Hth (Homothorax) (Drosophila melanogaster?;Drosophila …, UniProt P07548;P40427;O46339 1-586;1-376;1-487, ||); assay: EMSA; binding abolished when all sites mutated; 20 mM HEPES pH 7.9, 1.4 mM MgCl2, 1 mM ZnSO4, 40 mM KCl, 0.1 mM EGTA, 5% glycerol, 10 mM DTT, 0.1% NP40, 200 ng poly(dI-dC), 3 ug BSA, 2 pmol Cy5 dsDNA in 30 ul, on ice 20 min; 1% agarose-TBE gel at 4 C; settings: protein: recombinant;recombinant;recombinant; tags: GST (pGEX-6P);His-myc;His-Flag; copies: 1;1;1; label: 5'-Cy5; blunt
[3] = biological target: T2, Dfd (Deformed);Exd (Extradenticle);Hth …; assay: EMSA; 20 mM HEPES pH 7.9, 1.4 mM MgCl2, 1 mM ZnSO4, 40 mM KCl, 0.1 mM EGTA, 5% glycerol, 10 mM DTT, 0.1% NP40, 200 ng poly(dI-dC), 3 ug BSA, 2 pmol Cy5 dsDNA in 30 ul, on ice 20 min; 1% agarose-TBE gel at 4 C; settings: protein: recombinant;recombinant;recombinant; tags: GST (pGEX-6P);His-myc;His-Flag; copies: 1;1;1; label: 5'-Cy5; blunt
[4] = biological target: T1, Dfd (Deformed);Exd (Extradenticle); assay: EMSA; Hth presence not stated; review file prints 6.85 and 6.65; 20 mM HEPES pH 7.9, 1.4 mM MgCl2, 1 mM ZnSO4, 40 mM KCl, 0.1 mM EGTA, 5% glycerol, 10 mM DTT, 0.1% NP40, 200 ng poly(dI-dC), 3 ug BSA, 2 pmol Cy5 dsDNA in 30 ul, on ice 20 min; 1% agarose-TBE gel at 4 C; settings: protein: recombinant;recombinant; tags: GST (pGEX-6P);His-myc; copies: 1;1; label: 5'-Cy5; blunt

T2 sequence (P07548 whole entry, chain 1 of 3): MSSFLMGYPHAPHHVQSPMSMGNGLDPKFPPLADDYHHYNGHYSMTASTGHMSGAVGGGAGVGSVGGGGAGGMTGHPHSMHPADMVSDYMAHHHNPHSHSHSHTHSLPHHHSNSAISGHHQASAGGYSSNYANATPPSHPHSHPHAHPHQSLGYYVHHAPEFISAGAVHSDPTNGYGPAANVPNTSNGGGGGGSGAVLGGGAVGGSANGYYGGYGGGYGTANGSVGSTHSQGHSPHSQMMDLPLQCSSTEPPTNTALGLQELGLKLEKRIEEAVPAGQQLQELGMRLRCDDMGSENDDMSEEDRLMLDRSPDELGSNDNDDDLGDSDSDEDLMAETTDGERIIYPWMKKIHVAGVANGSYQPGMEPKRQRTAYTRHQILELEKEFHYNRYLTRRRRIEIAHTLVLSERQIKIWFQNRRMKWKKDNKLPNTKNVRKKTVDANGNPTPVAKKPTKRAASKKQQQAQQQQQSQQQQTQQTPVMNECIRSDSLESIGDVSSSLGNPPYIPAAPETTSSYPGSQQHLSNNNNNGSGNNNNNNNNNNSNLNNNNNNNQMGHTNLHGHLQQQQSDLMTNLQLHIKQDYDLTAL
T2 sequence (P40427 whole entry, chain 2 of 3): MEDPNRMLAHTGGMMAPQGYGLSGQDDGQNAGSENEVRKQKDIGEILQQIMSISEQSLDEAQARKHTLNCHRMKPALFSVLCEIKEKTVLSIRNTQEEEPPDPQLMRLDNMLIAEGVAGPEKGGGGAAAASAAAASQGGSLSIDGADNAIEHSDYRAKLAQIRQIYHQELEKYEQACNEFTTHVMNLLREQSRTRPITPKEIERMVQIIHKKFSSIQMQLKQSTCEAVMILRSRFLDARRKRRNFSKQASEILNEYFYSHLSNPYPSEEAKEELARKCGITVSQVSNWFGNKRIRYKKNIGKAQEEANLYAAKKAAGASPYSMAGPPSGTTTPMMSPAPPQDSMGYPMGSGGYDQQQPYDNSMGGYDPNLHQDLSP
T2 sequence (O46339 whole entry, chain 3 of 3): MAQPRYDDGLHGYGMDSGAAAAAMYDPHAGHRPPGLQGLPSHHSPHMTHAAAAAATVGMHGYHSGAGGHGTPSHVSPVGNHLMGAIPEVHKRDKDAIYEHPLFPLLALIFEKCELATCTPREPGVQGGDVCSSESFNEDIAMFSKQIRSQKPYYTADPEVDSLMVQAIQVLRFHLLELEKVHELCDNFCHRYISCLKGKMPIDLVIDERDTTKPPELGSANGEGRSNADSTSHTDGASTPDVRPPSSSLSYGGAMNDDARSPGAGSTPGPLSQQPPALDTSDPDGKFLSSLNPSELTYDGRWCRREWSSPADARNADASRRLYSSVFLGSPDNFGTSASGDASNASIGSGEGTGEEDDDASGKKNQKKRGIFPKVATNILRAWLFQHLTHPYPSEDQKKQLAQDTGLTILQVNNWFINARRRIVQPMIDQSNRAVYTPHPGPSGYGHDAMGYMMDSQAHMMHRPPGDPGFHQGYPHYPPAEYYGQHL
T1 sequence (P07548 whole entry, chain 1 of 2): as the sequence (P07548 whole entry, chain 1 of 3) above
T1 sequence (P40427 whole entry, chain 2 of 2): as the sequence (P40427 whole entry, chain 2 of 3) above

Row | Binder | Kd [1] [nM] | binding result [3] | also measured
1 | B1 | 16.9 |  | 
2 | B2 | 8.16 |  | 
3 | B3 |  |  | binding result [2]: no binding
4 | B4 |  | binds | 
5 | B5 | 16.8 | binds | 
6 | B6 |  |  | Kd [4]: 6.7 nM
7 | B7 | 9.12 |  | 
8 | B8 |  | binds | 
